These sequences were tested on MS2 coat protein (assay: apparent KD of MS2 coat protein; higher = weaker reporter binding). Details: Eterna round: R107; input ligand: arginine 13.2 mM.
Summary of the method: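 Designed RNA switches, transcribed on-chip from Illumina sequencing clusters, were titrated with SNAP-549-labelled MS2 coat protein from 0.7 or 1.5 nM to 3 µM in twofold steps. The solution was 100 mM Tris-HCl pH 7.5, 80 mM KCl, 4 mM MgCl2, with constant ligand or without it. Apparent KD is the median over each design's normalised cluster binding-curve fits.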

Sequence | apparent KD of MS2 coat protein [nM]
UCAUAUUAGAUAGAUGUAAGGUAUCAUGAUACCAGUAGAUAAUUAUACCCUUGGCAGCAUAACAUGAGGAUCACCCAUGUACAUG [Aa] | 20.3
UUGGGUUUGUGAAGGAGCGGGUAUGUUUUCUAGUGGAUCCUAACAUGAGGAUCACCCAUGUCCCAGGUAGGUCGCGCGGGUUUGG [12.U] | 64.6
UGCCGAGACGUGGAUUACCCAUGUACAGAAGGAGCGCCCGAAAGGGCAGGUAGGUCGCUGAGGACAUGAGGAUCACCCAUGUCGA | 36.6
UGUCAGCGAAAGUUGACAUGUCUUACCGGUCGAGGACCGGUACGGCCGCCACUCGAUCACUCGCACAUGAGGAUCACCCAUGUCG [SS Tryp A #20] | 11.7
ACGUAUGUCAGAAGGAGCGUCAAUAACAUGAGGAUCACCCAUGUAUUACAUAGGUAUAAUAGACAGGUAGGUCGCUGAAUUCGAA [JR_SSArginiB_Sub022] | 22.4
UUCUACAUGAGGAUCACCCAUGUGGGUGAUACCAGCACUUUUUGGUGCCCUUGGCAGCACAUGAGAAUGCCGUAAAAUCGGCGAU [Ceanteis] | 74.7
GCUACAUGAGGAUCACCCAUGUGUACUGAAGGAGCGGCGGAAACGCCAGGUAGGUCGCAGUAUGUGGCUCUGGGCACGAGAUGGC [SSAA NP+V+V2 #1] | 20.1
UAUAACAUGAGGAUCACCCAUGUAAGUGAUACCAGAUAAAUAAUAGUCCCUUGGCAGCAUAUUGGGAAAGUGUAUAAUAUAUAUU [Same State - Theophylline A (Freestyle 2)] | 50.8
AUGGUAAGAACAUGAGGAUCACCCAUGUGACGAGGACCGGUACGGCCGCCACUCGUACCUUAGUCGUCGAACAGAGGAUUCAUGU [Trypt A-MS2@10] | 37.1
ACGUCAUGGAGAACGUGACGACUUGUCGAUACCAGUGUUUGAUAGCGCCCUUGGCAGCGAACAUGAGGAUCACCCAUGUCAAGGG [#11 SameState-TheophyllineA] | 51.7
GAGACAUCGGGAAGGAGCGCAUCCAAACCACACAUGAGGAUCACCCAUGUAUAAAUAUGCAUGCAGGUAGGUCGCCCGGUAUCCC [Tiisqure] | 26.5
CCUAUGCAGUCGGCCGCCACUGAGUCCUCAAUAAUAAAUUAUUAUACAUGAGGAUCACCCAUGUACAGGACCGGGACUGUAUAGG [Ex Tryptophan B 14] | 89
CACGAAAGAUCGGCCGCCACUAGCCUGUGUGUACUAGCACAUGAGGAUCACCCAUGUUCUUGCGUUAGGACCGGGAUUGAGCGUG [#05 Exclusion Tryptophan B] | 17.1
CAGUCAGUCAGUCAAUGAGUGAGGCAUGAAGGAGCGUGGGAAACCACAGGUAGGUCGCAUGCGAAACAUGAGGAUCACCCAUGUU [SSArg A #3] | 29.4
GACGCAUGAGUUGUAAAAGCUCAUGGGUCGCGAGGACCGGUACGGCCGCCACUCGGCUGUACAUGAGGAUCACCCAUGUCAGGGU [#1 Same State - Tryptophan A Attempt #28 (HarryS)] | 154
UUAAUCUUGGUUGAAAACAAUUAAGCAGAAGGAGCGUGAUAAAACACAGGUAGGUCGCUGAAGGGAACAUGAGGAUCACCCAUGU [AstrosSSArgA#14] | 25.4
UUUUAACAUGAGGAUCACCCAUGUAAUGAUACCAGAGACGAAAGUCUCCCUUGGCAGCAUAAUCAUUACAUGAGAUGGAAACAUC [Theophylline A 7] | 29.2
UGGAUAAGGGUAAAUAGGAUAAGUACAGAAGGAGCGCGAAUAAACGCAGGUAGGUCGCUGGACAUGAGGAUCACCCAUGUAAAUG [Same State Arginine A GF 22] | 45.9
ACGACGGCUGCGGCCGCCACUGUACAUGAGGAUCACCCAUGUGUAGUAAUUGGGACCCUGUGUUACAGGACCGGGUAGUUGAUUA [Orquteer] | 23.3

Sequence | apparent KD of MS2 coat protein [nM]
GAGUCCGCGGCGGCCGCCACUCGCGGCGCCACAUGGCGCCGGGACAUGAGGAUCACCCAUGUCCCGAGGACCGGGCCGAUCCUCA [Same State Typrtophan B GF4] | 16.6
GGGUAUGAUCCGGAUACCAGCGAACAUGAGGAUCACCCAUGUGACCUAAGAUAGGCUCUACGCCCUUGGCAGCCGCGAUCGCAGA [Same State Theophylline B GF9] | 20.4
AUGCAUAUCAGAAGGAGCGUCUUUAACAUGAGGAUCACCCAUGUAACAUUGAAUUCGAUGAGACAGGUAGGUCGCUGAAUAGUAA [SS-ArgB24] | 27.5
ACCUGUACGAAAAGUGCAGGACACGGAAUACGAGGACCGGUACGGCCGCCACUCGGAUAAAACCUGAGGAUCACCCUGGUCCGUG [TrypAS 14 #AlternativeMS2 #Zipper #StaticStem] | 27.7
CUGUACAUCUCGGCCGCCACUGCAACAUGUACACAUGGACAUGUACAUGAGGAUCACCCAUGUGGCAGGACCGGGAGGUGUGCAG [SSTryp B #28] | 99.8
AGUCUAUGAAGAGAUACCAGUGAGAGACAUAGACAUGAGGAUCACCCAUGUGACAUGAAGCACCCUUGGCAGCUCAACGAGCUCA [Theo B SS t1] | 31.4
GAUUGGUAUAGAAGGAGCGUCGAAAAUGGGUAAACAUGAGGAUCACCCAUGUAAAGGGAACGACAGGUAGGUCGCUAUAUUAAUC [AstromonsSSArgB#30] | 146
UUCCACCUAAAGCGUUGCCCUCGUGAUGAUACCAGUUUCAGCGGUAACCCUUGGCAGCAUCGGACAUGAGGAUCACCCAUGUGGA [theeternabot_exclusion_MS2_Theo_A_47] | 64.9
AUUGUGAAGUCGGCCGCCACUGCAUAGUUUAACCUCUUUUAACAUGAGGAUCACCCAUGUAAUGACAGGACCGGGACAAUAGUAA [JR_SSTryptoB_Sub022] | 54.3
CAGAACAUGAGGAUCACCCAUGUUAGGGAUACCAGCUCAGACAUGGGCCCUUGGCAGCUCUAUGGCUGACGAAAGUCAGCAUCUG [#16 SameState-TheophyllineA] | 70.5
GGACAACAUGAGGAUCACCCAUGUCCUGAUACCAGUCAGCGCAGUGACCCUUGGCAGCAGACGGAUACGAAAUAACUGAGAGAUA [theeternabot_sameState_MS2_Theo_A_44] | 29.2
ACAUGAGGAUCACCCAUGUGAAGGCACGAUACCAGCUGAUCCCGUGGCCCUUGGCAGCGUCCGGUUUGGUCCGGCGGAUGAGACG [azamullin] | 19.6
AAGCCCAGGACGGCCGCCACUGUAAAAUGGUGGUUCGCCUGUAAGAACAUGAGGAUCACCCAUGUCAGGACCGGGUCCACGAGUU [theeternabot_exclusion_MS2_Trp_B_46] | 17.1
UUAGUAACGACGGCCGCCACUGAAUUUGAACAUGAGGAUCACCCAUGUAGAGAUCCUAGAAUAAACAGGACCGGGUCUGAUAAUG [Exclusion Tryptophane B GF3] | 80.8
GGAUAGGACAGAAGGAGCGGCAUGGCAGAAACUGCAAUCCUCCUACACGAGGAUCACCCGUGUCAGGUAGGUCGCUGUCCUAUCG [ArgXB 13 #Zipper #MS2Left #StaticStem #Blueprint] | 18.5
GGUGUAUCCAUCGAUACCAGCCACCACCGAUAGACCACAUGAGGAUCACCCAUGUUGGGUGGCCCUUGGCAGCGGUGGCUGUGCC [Same State - Theophylline B Attempt #3 (HarryS)] | 79.9
ACAUGAGGAUCACCCAUGUAUUACCGGGAAGGAGCGCGUAAGGACGCAGGUAGGUCGCUCGGCGUCGUGCCGGAAGGCACGACGA [#1 Same State - Arginine A Attempt #22 (HarryS)] | 17.9
GUCCGCAGCCGAAGGAGCGCUAGAAGGUGACAUGAGGAUCACCCAUGUGUGUGAUGUGGCUAGCAGGUAGGUCGCGGAGCGGAUU [Exclusion - Arginine B (Freestyle 18)] | 85.2
GAUAGUUGAAGGGAUACCAGCCUGGACAUGAGGAUCACCCAUGUAGCAUGUUUGAAACUGGGCCCUUGGCAGCCCAUAUUGUGUA [#11 Same State - Theophylline B] | 16.6

From the supplement of paper PMC9170038
